Assay results as given in patent publication US20210107983A1 (Boehringer Ingelheim, published 2021).
Where a chain is given by its changes, count along the chain named.

T1: Cyno B7H6-His (cynomolgus monkey)
T1 construct: also called CyB7H6; cyB7-H6
T1 chain: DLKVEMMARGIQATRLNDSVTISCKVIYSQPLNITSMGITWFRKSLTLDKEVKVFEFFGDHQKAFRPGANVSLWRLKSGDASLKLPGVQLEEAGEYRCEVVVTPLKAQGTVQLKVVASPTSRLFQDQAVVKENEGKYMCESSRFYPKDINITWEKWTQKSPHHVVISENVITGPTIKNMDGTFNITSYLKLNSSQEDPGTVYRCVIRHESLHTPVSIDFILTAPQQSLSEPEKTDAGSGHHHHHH

T2: human B7H6 on HCT-15 cells (human, UniProt Q68D85 25-454)
T2 sequence (looked up): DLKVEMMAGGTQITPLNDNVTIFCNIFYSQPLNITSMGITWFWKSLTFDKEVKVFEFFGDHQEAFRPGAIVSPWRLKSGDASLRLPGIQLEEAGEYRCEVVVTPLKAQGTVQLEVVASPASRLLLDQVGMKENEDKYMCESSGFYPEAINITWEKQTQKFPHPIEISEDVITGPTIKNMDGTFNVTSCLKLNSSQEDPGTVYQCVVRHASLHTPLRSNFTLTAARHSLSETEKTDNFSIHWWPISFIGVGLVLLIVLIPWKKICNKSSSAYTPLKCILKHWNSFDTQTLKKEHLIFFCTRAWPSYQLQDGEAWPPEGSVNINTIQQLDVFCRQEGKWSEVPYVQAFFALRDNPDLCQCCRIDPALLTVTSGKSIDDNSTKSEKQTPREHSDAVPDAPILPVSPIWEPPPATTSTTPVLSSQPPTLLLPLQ

B1: B7H6#14/CD3#2 (bispecific antibody, human IgG1, kappa, L234A L235A)
chain 1: DIQMTQSPSSLSASVGDRVTITCKASQNVGKYVAWYQQKPGKAPKSLIYSASNRYDGVPSRFSGSGSGTDFTLTISSLQPEDFATYFCQQYISYPLTFGAGTKLEIKRTVAAPSVFIFPPSDEQLKSGTASVVCLLNNFYPREAKVQWKVDNALQSGNSQESVTEQDSKDSTYSLSSTLTLSKADYEKHKVYACEVTHQGLSSPVTKSFNRGECGGGGSEGKSSGSGSESKSTEGKSSGSGSESKSTGGGGSQVQLVQSGAEVKKPGASVKVSCKASGYTFTNYWMNWMKQAPGQGLEWIGGIYLNGDSTDYNEKFKGKVTMTVDTSTSTVYMELSSLRSEDTAVYYCTRRGDYFGDFWGQGTLVTVSSASTKGPSVFPLAPSSKSTSGGTAALGCLVKDYFPEPVTVSWNSGALTSGVHTFPAVLQSSGLYSLSSVVTVPSSSLGTQTYICNVNHKPSNTKVDKRVEPKSCDKTHTCPPCPAPEAAGGPSVFLFPPKPKDTLMISRTPEVTCVVVDVSHEDPEVKFNWYVDGVEVHNAKTKPREEQYNSTYRVVSVLTVLHQDWLNGKEYKCKVSNKALPAPIEKTISKAKGQPREPQVYTLPPSREEMTKNQVSLWCLVKGFYPSDIAVEWESNGQPENNYKTTPPVLDSDGSFFLYSKLTVDKSRWQQGNVFSCSVMHEALHNHYTQKSLSLSPG
chain 2: not shown
notes: scFab-Fc heterodimer
B2: B7H6#23/CD3#5 (bispecific antibody, human IgG1, kappa, L234A L235A)
chain 1: B1 chain 1 with G57A, N283S, N306S, D308E
chain 2: not shown
notes: scFab-Fc heterodimer
B3: B7H6#23/CD3#4 (bispecific antibody, human IgG1, kappa, L234A L235A)
chain 1: B1 chain 1 with G57A, N283S, N306S, D308E
chain 2: not shown
notes: scFab-Fc heterodimer
B4: B7H6#14/CD3#4 (bispecific antibody, human IgG1, kappa, L234A L235A)
chain 1: B1 chain 1
chain 2: not shown
notes: scFab-Fc heterodimer
B5: B7H6#23/CD3#3 (bispecific antibody, human IgG1, kappa, L234A L235A)
chain 1: B1 chain 1 with G57A, N283S, N306S, D308E
chain 2: not shown
notes: scFab-Fc heterodimer
B6: B7H6#23/CD3#6 (bispecific antibody, human IgG1, kappa, L234A L235A)
chain 1: B1 chain 1 with G57A, N283S, N306S, D308E
chain 2: not shown
notes: scFab-Fc heterodimer
B7: B7H6#9/CD3#1 (bispecific antibody, human IgG1, kappa, lambda, L234A L235A)
chain 1: DIVLTQSPVSLAVSLGQRATISCRASESVDNFGVSFMNWFQQKPGQPPKLLIYAASNQGSGVPARFSGSGSGTDFSLNIHPLEEDDTAMYFCQQSKEVPWTFGGGTRLEIKRTVAAPSVFIFPPSDEQLKSGTASVVCLLNNFYPREAKVQWKVDNALQSGNSQESVTEQDSKDSTYSLSSTLTLSKADYEKHKVYACEVTHQGLSSPVTKSFNRGECGGGGSEGKSSGSGSESKSTEGKSSGSGSESKSTGGGGSQVQLQQPGAEMVRPGSSVKLSCKASDYTFTHYWIHWVKQRPLEGLEWIGIIGPSDNEIHYNQDFKDKATLTVDKSSNTAYLHLNSLTSEDSAVYYCARQIISMVVGTEYFDVWGTGTTVTVSSASTKGPSVFPLAPSSKSTSGGTAALGCLVKDYFPEPVTVSWNSGALTSGVHTFPAVLQSSGLYSLSSVVTVPSSSLGTQTYICNVNHKPSNTKVDKRVEPKSCDKTHTCPPCPAPEAAGGPSVFLFPPKPKDTLMISRTPEVTCVVVDVSHEDPEVKFNWYVDGVEVHNAKTKPREEQYNSTYRVVSVLTVLHQDWLNGKEYKCKVSNKALPAPIEKTISKAKGQPREPQVYTLPPSREEMTKNQVSLWCLVKGFYPSDIAVEWESNGQPENNYKTTPPVLDSDGSFFLYSKLTVDKSRWQQGNVFSCSVMHEALHNHYTQKSLSLSPG
chain 2: EAVVTQEPSLTVSPGGTVTLTCRSSTGAVTTSNYANWVQEKPGQLPRGLIGGTNKRAPWVPARFSGSLLGGKAALTLSGAQPEDEAEYFCALWYSNLWVFGGGTKLTVLGQPKAAPSVTLFPPSSEELQANKATLVCLISDFYPGAVKVAWKADGSPVNTGVETTTPSKQSNNKYAASSYLSLTPEQWKSHRSYSCQVTHEGSTVEKTVAPAECSGGGGSEGKSSGSGSESKSTEGKSSGSGSESKSTGGGGSEVQLVESGGGLVQPGGSLKLSCAASGFTFNTYAMNWVRQAPGKGLEWVARIRSKYNNYATYYADSVKDRFTISRDDSKNTAYLQMNNLKTEDTAVYYCVRHGNFGNSYVSWFAYWGQGTLVTVSAASTKGPSVFPLAPSSKSTSGGTAALGCLVKDYFPEPVTVSWNSGALTSGVHTFPAVLQSSGLYSLSSVVTVPSSSLGTQTYICNVNHKPSNTKVDKRVEPKSCDKTHTCPPCPAPEAAGGPSVFLFPPKPKDTLMISRTPEVTCVVVDVSHEDPEVKFNWYVDGVEVHNAKTKPREEQYNSTYRVVSVLTVLHQDWLNGKEYKCKVSNKALPAPIEKTISKAKGQPREPQVYTLPPSREEMTKNQVSLSCAVKGFYPSDIAVEWESNGQPENNYKTTPPVLDSDGSFFLVSKLTVDKSRWQQGNVFSCSVMHEALHNRFTQKSLSLSPG
notes: scFab-Fc heterodimer, one B7H6 chain and one CD3 chain

Target: T1, Cyno B7H6-His
Experiment: SPR, binder captured on Protein A/G, B7H6 analyte
Procedure, shortened: (§1)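 B7H6/CD3 binder captured (~700 RU) on a Protein A/G CM5 surface in HBS-EP+. Human or cyno B7H6 injected at 0–100 nM and human B7H1 at 0 nM and 1 μM, 300 s association and 1200 s dissociation. Data double-referenced against the reference flow cell and blank.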

Point of comparison: B1, Kd 1 nM. Against it:
- B2 — 1.9-fold higher, 1.9 nM
- B3 — 1.7-fold higher, 1.7 nM
- B4 — within 1.5-fold, 1.1 nM
- B5 — 1.9-fold higher, 1.9 nM
- B6 — 2-fold higher, 2 nM

Each binder was assayed against T3, Human CD3 E+G HuFc-6xHis (human) (assay: SPR, CD3E+G-hFc immobilized, binder analyte).
T3 construct: also called HuCD3E+G-hFc; huCD3
T3 sequence (chain, as listed by the source limits assumed): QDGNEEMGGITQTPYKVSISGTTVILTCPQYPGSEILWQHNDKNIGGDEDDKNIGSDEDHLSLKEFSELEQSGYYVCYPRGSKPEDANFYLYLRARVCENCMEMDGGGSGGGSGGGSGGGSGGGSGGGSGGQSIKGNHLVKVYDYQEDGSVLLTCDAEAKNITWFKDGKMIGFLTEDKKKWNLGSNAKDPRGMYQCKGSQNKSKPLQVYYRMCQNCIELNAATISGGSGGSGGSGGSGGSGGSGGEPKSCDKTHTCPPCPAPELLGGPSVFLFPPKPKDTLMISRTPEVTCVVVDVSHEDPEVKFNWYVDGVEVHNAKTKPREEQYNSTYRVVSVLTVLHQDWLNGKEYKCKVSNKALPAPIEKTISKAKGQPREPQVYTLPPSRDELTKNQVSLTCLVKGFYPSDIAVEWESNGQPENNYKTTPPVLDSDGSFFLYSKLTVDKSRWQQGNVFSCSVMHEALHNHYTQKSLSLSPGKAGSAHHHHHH
Procedure, shortened: (§2)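 On a ProteOn XPR36, human and cyno CD3E+G-hFc were amine-coupled to a GLM chip at 0.4, 0.2 and 0.1 μg/mL in 10 mM acetate pH 4.5. B7H6/CD3 binding protein (0–100 nM) flowed in HBS-EP+ at 30 μL/min, with 300 s association and 600 s dissociation. Interspot and blank responses were subtracted.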

Point of comparison: B5, Kd 13.8 nM. Against it:
- B1 — within 1.5-fold, 16.9 nM
- B2 — 4.9-fold lower, 2.8 nM
- B3 — 3.6-fold lower, 3.8 nM
- B4 — 1.8-fold lower, 7.6 nM
- B6 — 4.1-fold lower, 3.4 nM

What follows are binders tested against T4, Cyno CD3 E+G HuFc-6xHis (cynomolgus monkey) (assay: SPR, CD3E+G-hFc immobilized, binder analyte).
T4 construct: also called CyCD3E+G-hFc; cyCD3
T4 sequence (chain, as listed by the source limits assumed): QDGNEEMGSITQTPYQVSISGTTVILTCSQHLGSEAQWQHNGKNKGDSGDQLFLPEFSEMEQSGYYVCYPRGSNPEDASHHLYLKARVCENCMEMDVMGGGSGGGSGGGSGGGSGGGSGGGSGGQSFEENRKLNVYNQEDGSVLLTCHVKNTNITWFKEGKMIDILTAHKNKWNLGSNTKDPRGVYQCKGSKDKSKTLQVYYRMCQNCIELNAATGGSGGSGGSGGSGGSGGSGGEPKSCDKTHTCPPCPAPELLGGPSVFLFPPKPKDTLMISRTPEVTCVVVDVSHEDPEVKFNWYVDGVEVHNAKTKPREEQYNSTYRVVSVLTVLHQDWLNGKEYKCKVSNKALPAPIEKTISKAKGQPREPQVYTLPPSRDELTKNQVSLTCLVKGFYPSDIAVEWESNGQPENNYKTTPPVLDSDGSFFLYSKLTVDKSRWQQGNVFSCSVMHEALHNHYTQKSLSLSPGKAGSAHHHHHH
Procedure, shortened: as §2

Point of comparison: B2, Kd 3.7 nM. Against it:
- B1 — 4.8-fold higher, 17.7 nM
- B3 — within 1.5-fold, 3.6 nM
- B4 — 2.3-fold higher, 8.5 nM
- B5 — 3.2-fold higher, 11.9 nM
- B6 — within 1.5-fold, 3.9 nM

What follows are binders tested against T2, human B7H6 on HCT-15 cells (assay: cell-based or functional assay).

For B7, the “EC50 [nM], 72 hour cytotoxicity assay, non-stimulated T-cells (Donor #1) as effector cells, HCT-15 cells as target cells” value was 0.44 nM.

What follows are binders tested against T5, CD3 on human T-cells (human, UniProt P07766;P09693) (assay: flow cytometry on purified human T-cells, PE anti-human secondary antibody).
T5 construct: endogenous, on the surface of purified T-cells; also called human T-cells expressing CD3
T5 sequence (P07766 23-207, chain 1 of 2): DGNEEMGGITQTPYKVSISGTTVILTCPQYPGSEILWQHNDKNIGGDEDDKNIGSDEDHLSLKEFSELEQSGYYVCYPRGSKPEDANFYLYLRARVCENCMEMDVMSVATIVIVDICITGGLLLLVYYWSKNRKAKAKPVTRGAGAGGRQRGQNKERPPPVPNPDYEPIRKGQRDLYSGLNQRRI
T5 sequence (P09693 23-182, chain 2 of 2): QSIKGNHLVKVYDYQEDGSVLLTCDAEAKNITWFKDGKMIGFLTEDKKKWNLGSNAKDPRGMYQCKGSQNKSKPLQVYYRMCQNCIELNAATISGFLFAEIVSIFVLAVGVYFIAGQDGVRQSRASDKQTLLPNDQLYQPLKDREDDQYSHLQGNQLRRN
Method: T-cells were isolated by negative selection using the Pan T Cell Isolation Kit II (Miltenyi Biotec #130-091-156). In brief, cells were resuspended in 40 μl buffer PBS/0.5% BSA (Gibco ref #041-94553 M)/2 mM EDTA (Invitrogen ref #15575-038) per 10 Mio cells and incubated with 10 μl of Biotin-Antibody cocktail per 10 Mio cells for 5 min at 4° C. Subsequently, 30 μl buffer and 20 μl anti-biotin MACS® MicroBeds/10 million cells were added and incubated for 10 min at 4° C. Subsequently the mixture was placed in a pre-rinsed 25LS column (Miltenyi Biotec #130-042-401) in the magnetic field of suitable MACS® microbeads separator (Miltenyi Biotec). Flow-through was collected and washed in assay medium.
T-cells were stained with increasing concentrations of two-step purified B7H6/CD3 binding proteins in FACS buffer (PBS/0.5% BSA/0.05% sodium azide). Bound molecules were detected with PE-conjugated anti-human secondary antibody (Sigma-Aldrich, #P8047).

B1: binds.
B2: binds.
B3: binds.
B4: binds.
B5: binds.
B6: binds.

The binders below were run against T6, Human B7H1 (human, UniProt Q9NZQ7 20-239) (assay: SPR, binder captured on Protein A/G, HuB7H1 analyte).
T6 construct: also called HuB7H1; huB7-H1
T6 sequence (Q9NZQ7 other isoform, or with tags, fused parts or gaps limits assumed): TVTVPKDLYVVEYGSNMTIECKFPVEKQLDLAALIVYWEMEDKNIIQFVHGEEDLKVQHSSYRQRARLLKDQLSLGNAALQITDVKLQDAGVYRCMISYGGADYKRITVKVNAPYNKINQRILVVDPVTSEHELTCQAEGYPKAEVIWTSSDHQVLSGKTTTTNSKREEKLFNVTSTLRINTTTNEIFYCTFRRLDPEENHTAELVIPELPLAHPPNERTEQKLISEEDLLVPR
Procedure, shortened: as §1

B1: no binding (tested: 1 µM).
B2: no binding (tested: 1 µM).
B3: no binding (tested: 1 µM).
B4: no binding (tested: 1 µM).
B5: no binding (tested: 1 µM).
B6: no binding (tested: 1 µM).

Each binder was assayed against T7, chicken egg white lysozyme (chicken, UniProt P00698 19-147) (assay: SPR, 1 µM binder over immobilized lysozyme).
T7 construct: unrelated positively charged protein, amine-coupled to the chip; also called Lysozyme (positive)
T7 sequence (P00698 19-147): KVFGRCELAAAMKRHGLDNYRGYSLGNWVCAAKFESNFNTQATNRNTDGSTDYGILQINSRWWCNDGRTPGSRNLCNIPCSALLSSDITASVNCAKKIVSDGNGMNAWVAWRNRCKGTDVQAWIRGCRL
Procedure, shortened: (§3)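 Non-specific binding tested with samples at 1 μM in HBS-EP at 25 °C, 5 μL/min, over lysozyme or trypsin inhibitor amine-coupled to CM5 chip (3000–5000 RU). Association 10 min, dissociation 15 min.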

Point of comparison: B3, “Non-specific binding (RU)” value 6.8 RU. Against it:
- B1 — higher, 11.2 RU
- B2 — higher, 15 RU
- B4 — higher, 8.8 RU
- B5 — higher, 18.9 RU
- B6 — higher, 57.2 RU

The binders below were run against T4, Cyno CD3 E+G HuFc-6xHis (assay: ratio of SPR KDs cyno/human).

Point of comparison: B5, “cy/hu CD3” value 0.9. Against it:
- B1 — higher, 1
- B2 — higher, 1.3
- B3 — the same, 0.9
- B4 — higher, 1.1
- B6 — higher, 1.2

Target: T1, Cyno B7H6-His
Experiment: ratio of SPR KDs cyno/human

Point of comparison: B4, “cy/hu B7-H6” value 0.8. Against it:
- B1 — higher, 0.9
- B2 — higher, 0.9
- B3 — higher, 1
- B5 — higher, 0.9
- B6 — higher, 1.1

Each binder was assayed against T8, trypsin inhibitor from Glycine max soybean (Glycine max (soybean)) (assay: SPR, 1 µM binder over immobilized trypsin inhibitor).
T8 construct: unrelated negatively charged protein, amine-coupled to the chip
T8 sequence (P01070 25-205): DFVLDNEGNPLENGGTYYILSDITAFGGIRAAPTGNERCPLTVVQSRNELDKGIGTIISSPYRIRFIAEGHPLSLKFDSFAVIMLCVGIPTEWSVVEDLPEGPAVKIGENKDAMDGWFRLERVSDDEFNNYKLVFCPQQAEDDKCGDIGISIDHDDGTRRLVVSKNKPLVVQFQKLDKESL
Procedure, shortened: as §3

Point of comparison: B6, “Non-specific binding (RU)” value 96.5 RU. Against it:
- B1 — lower, 12.2 RU
- B2 — higher, 115 RU
- B3 — lower, 20.7 RU
- B4 — lower, 22.6 RU
- B5 — lower, 38.7 RU

These binders were tested against T9, Fc-His-tagged human B7H6 ECD (human) (assay: ELISA, plate coated with Fc-His-tagged human B7H6 ECD, anti-human IgG F(ab')2-peroxidase, TMB).
T9 construct: also called huB7H6-ECD-Fc-His; recombinant human B7H6 ECD
Method: To assess binding of B7H6/CD3 binding proteins to recombinant human Fc-His-tagged B7H6 ECD and human Fc-His-tagged Ala-mutated B7H6 extracellular proteins as described in Example 3, MediSorp™ plates (Nunc, 467320) were coated with […] recombinant proteins overnight at 4° C. The next day, plates were blocked with 0.5% bovine serum albumin (BSA) in phosphate buffered saline (PBS) for 1 hour at room temperature (RT). Subsequently plates were washed with […] containing 0.05% TWEEN®20 viscous liquid and B7H6/CD3 binding proteins were incubated at concentrations ranging from 0.00001 to 10 μg/ml. After an additional washing step, bound B7H6/CD3 binding proteins were detected by a peroxidase conjugated goat anti-human IgG F(ab′)₂-specific secondary antibody (Jackson Immunoresearch) and visualized by TMB substrate solution (Bender Med Systems).

With B7 the “EC50 (read off the curve)” value was roughly 0.05 µg/mL.
